# Data from US20260217779.
# Residue numbers refer to the chain shown, from its start.
# T1: hCXCL11-G1T4k.one//VHn-G1T4h.one.H435R
# T1 chain 1: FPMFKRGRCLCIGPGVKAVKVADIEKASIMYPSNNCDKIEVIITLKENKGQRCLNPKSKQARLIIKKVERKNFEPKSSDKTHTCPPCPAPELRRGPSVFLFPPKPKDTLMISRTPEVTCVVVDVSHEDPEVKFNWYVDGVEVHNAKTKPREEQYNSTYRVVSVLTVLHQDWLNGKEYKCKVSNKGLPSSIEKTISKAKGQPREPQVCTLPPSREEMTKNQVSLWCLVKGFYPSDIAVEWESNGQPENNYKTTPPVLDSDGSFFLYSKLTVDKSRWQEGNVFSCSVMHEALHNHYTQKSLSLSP
# T1 chain 2: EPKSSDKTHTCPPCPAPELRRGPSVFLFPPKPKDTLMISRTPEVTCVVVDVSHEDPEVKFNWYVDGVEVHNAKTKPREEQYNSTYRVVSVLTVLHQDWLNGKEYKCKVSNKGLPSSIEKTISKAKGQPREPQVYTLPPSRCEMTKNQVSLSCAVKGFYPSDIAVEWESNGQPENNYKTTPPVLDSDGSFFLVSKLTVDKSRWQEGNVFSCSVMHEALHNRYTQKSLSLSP
# T2: hCXCL11.0039-G1T4k.one//VHn-G1T4h.one.H435R
# T2 chain 1: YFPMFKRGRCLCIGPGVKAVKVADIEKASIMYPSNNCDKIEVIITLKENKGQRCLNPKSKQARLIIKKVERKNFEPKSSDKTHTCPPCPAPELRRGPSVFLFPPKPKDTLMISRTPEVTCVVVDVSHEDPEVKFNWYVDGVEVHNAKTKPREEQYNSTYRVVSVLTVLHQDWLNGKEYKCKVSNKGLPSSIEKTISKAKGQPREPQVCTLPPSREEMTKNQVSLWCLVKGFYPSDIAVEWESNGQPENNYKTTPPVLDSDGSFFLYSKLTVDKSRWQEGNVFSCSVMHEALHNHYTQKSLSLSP
# T2 chain 2: T1 chain 2
# T3: hITIP0022-G1T4k.one//VHn-G1T4h.one.H435R
# T3 chain 1: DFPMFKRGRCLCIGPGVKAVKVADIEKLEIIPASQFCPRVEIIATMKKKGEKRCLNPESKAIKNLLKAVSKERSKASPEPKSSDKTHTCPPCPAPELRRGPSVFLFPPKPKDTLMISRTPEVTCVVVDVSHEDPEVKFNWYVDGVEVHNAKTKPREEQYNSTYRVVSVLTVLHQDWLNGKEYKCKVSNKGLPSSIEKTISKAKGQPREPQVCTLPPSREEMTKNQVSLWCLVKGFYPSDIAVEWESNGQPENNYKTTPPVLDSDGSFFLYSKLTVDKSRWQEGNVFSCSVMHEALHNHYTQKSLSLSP
# T3 chain 2: T1 chain 2
# T4: hITIP0037-G1T4k.one//VHn-G1T4h.one.H435R
# T4 chain 1: T3 chain 1 with D1V
# T4 chain 2: T1 chain 2
# T5: hCXCL11.0022-G1T4k.one//VHn-G1T4h.one.H435R
# T5 chain 1: T2 chain 1 with Y1D
# T5 chain 2: T1 chain 2
# T6: hCXCL11.0021-G1T4k.one//VHn-G1T4h.one.H435R
# T6 chain 1: T2 chain 1 with Y1A
# T6 chain 2: T1 chain 2
# T7: hCXCL11.0037-G1T4k.one//VHn-G1T4h.one.H435R
# T7 chain 1: T2 chain 1 with Y1V
# T7 chain 2: T1 chain 2
# T8: hITIP0036-G1T4k.one//VHn-G1T4h.one.H435R
# T8 chain 1: T3 chain 1 with D1T
# T8 chain 2: T1 chain 2
# B1: human dipeptidyl peptidase IV (human DPPIV, hDPPIV) (Biolegend, 764102) (protein)
# chain: NKGTDDATADSRKTYTLTDYLKNTYRLKLYSLRWISDHEYLYKQENNILVFNAEYGNSSVFLENSTFDEFGHSINDYSISPDGQFILLEYNYVKQWRHSYTASYDIYDLNKRQLITEERIPNNTQWVTWSPVGHKLAYVWNNDIYVKIEPNLPSYRITWTGKEDIIYNGITDWVYEEEVFSAYSALWWSPNGTFLAYAQFNDTEVPLIEYSFYSDESLQYPKTVRVPYPKAGAVNPTVKFFVVNTDSLSSVTNATSIQITAPASMLIGDHYLCDVTWATQERISLQWLRRIQNYSVMDICDYDESSGRWNCLVARQHIEMSTTGWVGRFRPSEPHFTLDGNSFYKIISNEEGYRHICYFQIDKKDCTFITKGTWEVIGIEALTSDYLYYISNEYKGMPGGRNLYKIQLSDYTKVTCLSCELNPERCQYYSVSFSKEAKYYQLRCSGPGLPLYTLHSSVNDKGLRVLEDNSALDKMLQNVQMPSKKLDFIILNETKFWYQMILPPHFDKSKKYPLLLDVYAGPCSQKADTVFRLNWATYLASTENIIVASFDGRGSGYQGDKIMHAINRRLGTFEVEDQIEAARQFSKMGFVDNKRIAIWGWSYGGYVTSMVLGSGSGVFKCGIAVAPVSRWEYYDSVYTERYMGLPTPEDNLDHYRNSTVMSRAENFKQVEYLLIHGTADDNVHFQQSAQISKALVDVGVDFQAMWYTDEDHGIASSTAHQHIYTHMSHFIKQCFSLP
# Experiments:
# [1] = biological target: T1, hCXCL11-G1T4k.one//VHn-G1T4h.one.H435R
# [2] = biological target: T2, hCXCL11.0039-G1T4k.one//VHn-G1T4h.one.H4 …
# [3] = biological target: T3, hITIP0022-G1T4k.one//VHn-G1T4h.one.H435R
# [4] = biological target: T4, hITIP0037-G1T4k.one//VHn-G1T4h.one.H435R
# [5] = biological target: T5, hCXCL11.0022-G1T4k.one//VHn-G1T4h.one.H4 …
# [6] = biological target: T6, hCXCL11.0021-G1T4k.one//VHn-G1T4h.one.H4 …
# [7] = biological target: T7, hCXCL11.0037-G1T4k.one//VHn-G1T4h.one.H4 …
# [8] = biological target: T8, hITIP0036-G1T4k.one//VHn-G1T4h.one.H435R
protein,measurement,setting,value
B1,cleavage by hDPPIV (LC/MS mass),[1],DPPIV treatment reduced each of the masses
same,cleavage by hDPPIV (LC/MS mass),[2],showed no mass change suggestive of peptide bond cleavage by hDPPIV treatment
same,cleavage by hDPPIV (LC/MS mass),[3],showed no mass change suggestive of peptide bond cleavage by hDPPIV treatment
same,cleavage by hDPPIV (LC/MS mass),[4],showed no mass change suggestive of peptide bond cleavage by hDPPIV treatment
same,cleavage by hDPPIV (LC/MS mass),[5],showed no mass change suggestive of peptide bond cleavage by hDPPIV treatment
same,cleavage by hDPPIV (LC/MS mass),[6],showed no mass change suggestive of peptide bond cleavage by hDPPIV treatment
same,cleavage by hDPPIV (LC/MS mass),[7],showed no mass change suggestive of peptide bond cleavage by hDPPIV treatment
same,cleavage by hDPPIV (LC/MS mass),[8],showed no mass change suggestive of peptide bond cleavage by hDPPIV treatment
